Test results reported in patent publication US20230365681A1 (CELGENE, published 2023).

Experiments:
mouse CD47 = molecular target: T1, mouse CD47 (mouse, UniProt Q61735 19-140, limits assumed); experiment: SPR
T1 sequence (looked up): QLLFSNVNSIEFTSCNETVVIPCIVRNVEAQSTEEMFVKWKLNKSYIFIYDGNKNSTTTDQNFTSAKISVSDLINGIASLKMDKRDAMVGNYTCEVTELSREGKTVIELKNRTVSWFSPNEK

human CD20 = molecular target: T2, human CD20 (human, UniProt P11836 1-297, limits assumed); experiment: sandwich SPR
T2 sequence (looked up): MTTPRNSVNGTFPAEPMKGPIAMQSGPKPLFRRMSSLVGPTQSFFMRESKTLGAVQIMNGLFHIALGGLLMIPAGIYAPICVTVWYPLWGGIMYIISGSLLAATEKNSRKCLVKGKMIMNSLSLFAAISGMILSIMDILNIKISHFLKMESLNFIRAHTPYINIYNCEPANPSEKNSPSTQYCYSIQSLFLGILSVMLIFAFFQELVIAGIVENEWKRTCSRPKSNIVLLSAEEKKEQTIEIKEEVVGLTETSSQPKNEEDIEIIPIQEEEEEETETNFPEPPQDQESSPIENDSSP

[1] = molecular target: T3, human CD47 extracellular domain (human, UniProt Q08722 19-139); experiment: SPR, human CD47 ECD
T3 construct: extracellular domain; also called human CD47 ECD; Hu CD47
T3 sequence (Q08722 19-139 limits assumed): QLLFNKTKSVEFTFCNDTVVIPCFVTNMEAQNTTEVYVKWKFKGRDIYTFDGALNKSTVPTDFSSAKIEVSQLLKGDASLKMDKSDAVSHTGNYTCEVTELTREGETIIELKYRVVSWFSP

[2] = molecular target: T4, cynomolgus CD47 extracellular domain (cynomolgus monkey, UniProt A0A2K5X523 19-141); experiment: SPR, cynomolgus CD47
T4 construct: also called cynomolgus CD47 ECD
T4 sequence (A0A2K5X523 entry or part of it limits assumed): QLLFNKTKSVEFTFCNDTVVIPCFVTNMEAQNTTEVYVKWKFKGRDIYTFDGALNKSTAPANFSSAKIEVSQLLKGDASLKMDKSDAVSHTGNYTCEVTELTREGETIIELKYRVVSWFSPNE

[3] = molecular target: T4, cynomolgus CD47 extracellular domain; experiment: SPR, cynomolgus CD47 ECD
human CD47 on cells [4] = molecular target: T5, human CD47 on cells (human, UniProt Q08722 19-323); experiment: cell-based or functional assay
T5 sequence (Q08722 19-323): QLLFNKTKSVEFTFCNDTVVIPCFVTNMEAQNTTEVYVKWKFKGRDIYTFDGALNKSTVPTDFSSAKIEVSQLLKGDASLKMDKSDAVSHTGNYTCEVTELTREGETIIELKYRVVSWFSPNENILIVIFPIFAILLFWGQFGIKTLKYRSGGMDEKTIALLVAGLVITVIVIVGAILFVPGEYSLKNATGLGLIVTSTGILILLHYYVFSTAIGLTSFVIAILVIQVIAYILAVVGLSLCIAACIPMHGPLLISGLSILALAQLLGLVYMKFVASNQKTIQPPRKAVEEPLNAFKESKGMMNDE

[5] = molecular target: T6, cynomolgus CD20 on B cells (cynomolgus monkey, UniProt M4ZHZ6 1-297); experiment: binding to cynomolgus macaque B cells
T6 construct: whole, on cells; also called cynomolgus macaque B cells
T6 sequence: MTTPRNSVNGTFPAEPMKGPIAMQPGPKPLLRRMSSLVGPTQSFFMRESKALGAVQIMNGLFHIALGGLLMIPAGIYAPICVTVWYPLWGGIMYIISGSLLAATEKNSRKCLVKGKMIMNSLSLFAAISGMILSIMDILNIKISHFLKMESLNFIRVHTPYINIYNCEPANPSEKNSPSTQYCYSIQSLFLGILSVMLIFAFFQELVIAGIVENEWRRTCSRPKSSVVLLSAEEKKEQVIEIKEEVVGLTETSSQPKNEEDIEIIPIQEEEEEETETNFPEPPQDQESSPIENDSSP

[6] = molecular target: T3, human CD47 extracellular domain; experiment: SPR, extracellular domain of human CD47
[7] = molecular target: T7, FcγR1 on engineered HEK293 cells (UniProt P12314 16-374); experiment: TR-FRET on FcγR-engineered HEK293 cells
T7 construct: whole, on cells; also called FcγR1 cell line
T7 sequence (P12314 16-374, change not shown): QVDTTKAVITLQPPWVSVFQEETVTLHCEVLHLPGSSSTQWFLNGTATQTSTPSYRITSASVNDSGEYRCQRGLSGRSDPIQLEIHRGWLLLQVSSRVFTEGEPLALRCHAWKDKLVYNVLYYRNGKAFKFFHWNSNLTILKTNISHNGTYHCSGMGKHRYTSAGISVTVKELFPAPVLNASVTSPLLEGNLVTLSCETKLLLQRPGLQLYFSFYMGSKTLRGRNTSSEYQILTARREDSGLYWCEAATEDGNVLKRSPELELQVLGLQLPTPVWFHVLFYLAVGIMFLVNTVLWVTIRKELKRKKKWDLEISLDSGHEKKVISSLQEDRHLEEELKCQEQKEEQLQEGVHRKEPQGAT

[8] = molecular target: T8, FcγR2B on engineered HEK293 cells (UniProt P31994 43-310); experiment: TR-FRET on FcγR-engineered HEK293 cells
T8 construct: whole, on cells; also called FcγR2B cell line
T8 sequence (looked up): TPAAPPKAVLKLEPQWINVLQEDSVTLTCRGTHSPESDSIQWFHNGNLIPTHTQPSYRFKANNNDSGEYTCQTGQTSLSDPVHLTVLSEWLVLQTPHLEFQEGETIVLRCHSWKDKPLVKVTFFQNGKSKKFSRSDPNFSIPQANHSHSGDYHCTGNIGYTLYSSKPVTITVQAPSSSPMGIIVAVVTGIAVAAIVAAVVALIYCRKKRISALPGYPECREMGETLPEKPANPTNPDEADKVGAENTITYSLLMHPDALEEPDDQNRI

[9] = molecular target: recombinant human fragment crystallizable gamma receptor (FcγR) family members tested; experiment: recombinant human FcγR proteins; method not stated
[10] = molecular target: T9, FcγR2A (H131) recombinant protein (human, UniProt P12318 34-217); experiment: recombinant protein, compared with control anti-RSV IgG1 antibody (p value 0.0038)
T9 sequence (looked up): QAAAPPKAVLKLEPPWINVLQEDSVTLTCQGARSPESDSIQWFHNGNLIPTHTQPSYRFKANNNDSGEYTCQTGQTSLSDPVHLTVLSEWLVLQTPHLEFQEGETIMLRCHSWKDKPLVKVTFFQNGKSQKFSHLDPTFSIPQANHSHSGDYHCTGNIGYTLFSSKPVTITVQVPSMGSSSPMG

[11] = molecular target: FcγR3A (F176) recombinant protein (human, UniProt P08637 17-208); experiment: recombinant protein, compared with control anti-RSV IgG1 antibody (p value 0.0045)
FcγR3A (F176) recombinant protein, sequence (P08637 17-208): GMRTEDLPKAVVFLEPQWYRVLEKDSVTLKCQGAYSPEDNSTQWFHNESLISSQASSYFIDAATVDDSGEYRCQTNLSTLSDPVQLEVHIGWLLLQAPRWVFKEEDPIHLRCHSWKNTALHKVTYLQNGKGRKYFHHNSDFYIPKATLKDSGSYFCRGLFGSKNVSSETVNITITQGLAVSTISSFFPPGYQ

[12] = molecular target: FcγR3A (V176) recombinant protein (human, UniProt P08637 17-208); experiment: recombinant protein, compared with control anti-RSV IgG1 antibody (p value 0.0049)
FcγR3A (V176) recombinant protein, sequence (P08637 17-208 F176V): as the sequence (P08637 17-208) above, with F160V counted along it

[13] = molecular target: T10, FcγR2A (R131) recombinant protein (human, UniProt P12318 34-217); experiment: recombinant protein, compared with control anti-RSV IgG1 antibody (p value 0.00019)
T10 sequence (looked up): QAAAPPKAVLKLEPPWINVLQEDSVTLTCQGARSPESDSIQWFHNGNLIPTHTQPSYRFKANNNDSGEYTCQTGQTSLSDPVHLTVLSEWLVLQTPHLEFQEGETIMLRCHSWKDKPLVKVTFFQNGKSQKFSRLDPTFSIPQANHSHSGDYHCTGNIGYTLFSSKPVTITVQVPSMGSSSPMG

[14] = molecular target: T3, human CD47 extracellular domain; experiment: SPR, human CD47 ECD; Example 4 SPR; earlier determination than the 2.32 µM of paragraph 95
human CD20 on cells = molecular target: T11, human CD20 on cells (human, UniProt P11836 1-297); experiment: binding to Raji cells (CD20+/CD47+), y axis MFI (the legend paragraph 44 says SPR)
T11 construct: whole, on cells; also called CD20 on Raji cells and human B cells
T11 sequence (looked up): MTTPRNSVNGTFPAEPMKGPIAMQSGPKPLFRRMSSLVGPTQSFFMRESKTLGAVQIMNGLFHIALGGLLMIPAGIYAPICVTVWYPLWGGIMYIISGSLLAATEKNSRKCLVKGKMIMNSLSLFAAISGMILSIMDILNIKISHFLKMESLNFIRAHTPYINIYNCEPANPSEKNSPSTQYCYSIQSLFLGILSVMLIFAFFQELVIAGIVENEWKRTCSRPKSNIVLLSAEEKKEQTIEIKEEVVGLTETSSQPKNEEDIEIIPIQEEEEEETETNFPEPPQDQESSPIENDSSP

human CD47 on cells [15] = molecular target: T5, human CD47 on cells; experiment: blocking of human SIRPα binding to Raji cells, SIRPα at saturating concentration, secondary antibody detection; competitor SIRPα (repeated in paragraph 145 as average EC50); Raji cells (CD20+/CD47+); blocking of SIRPα binding
human CD47 on cells [16] = molecular target: T5, human CD47 on cells; experiment: blocking of human SIRPα binding to OCI-Ly3 cells, SIRPα at saturating concentration, secondary antibody detection; competitor SIRPα (repeated in paragraph 145 as average EC50); OCI-Ly3 cells (CD20+/CD47+); blocking of SIRPα binding

binding result (mouse CD47): no binding
binding result (human CD20): binds
fold decrease in affinity relative to the parental anti-CD47 binder [1]: ~350 fold
Kd [2]: 23 µM
Kd [3]: 4.51 µM
EC50 of macrophage phagocytosis of OCI-Ly3 cells, OCI-Ly3 Mφ EC50 (µg/mL) REPEAT (human CD47 on cells [4]): 0.27 µg/mL
binding result [5]: binds
Kd [6]: 2.32 µM
binding result [7]: binds
binding result [8]: binds
Kd [9]: 0.04 to 1620 nM
binding result [10]: binds
binding result [11]: binds
binding result [12]: binds
binding result [13]: binds
Kd [14]: 1.7 µM
binding result (human CD20 on cells): binds
EC50 (human CD47 on cells [15]): 0.00164 µM
EC50 (human CD47 on cells [16]): 0.0013 µM
B1: TPP-1360 (bispecific antibody, human IgG1, kappa)
light 1: NIQMTQSPSSLSASVGDRVTITCRASQDIHRYLSWFQQKPGKVPKHLIYRESRFVDGVPSRFSGSGSGTEFTLTISSLQPEDFATYYCLQYDEFPYTFGGGTKVEIKRTVAAPSVFIFPPSDEELKSGTASVVCWLNNFYPREAKVQWKVDNALQSGNSEESVTEQDSKDSTYSLSSTLELSKADYEKHKVYACEVTHQGLSSPVTKSFNRGEC
heavy 1: QMQLVQSGAEVKKPGSSVKVSCKASGFNIKDYYLHWVRQAPGKGLEWMGWIDPDQGDTYYAQKFQGRVTITRDRSTSTAYMELRSLRAEDTAVYYCNAAYGESSYPMDYWGQGTLVTVSSASTKGPSVFPLAPSSKSTSGGTAALGCLVKDYFPEPVTVSWNSGALTSGVHTFPAVLKSSGLYSLSSVVTVPSSSLGTQTYICNVNHKPSNTKVDKKVEPKSCDKTHTCPPCPAPELLGGPSVFLFPPKPKDTLMISRTPEVTCVVVDVSHEDPEVKFNWYVDGVEVHNAKTKPREEQYNSTYRVVSVLTVLHQDWLNGKEYKCKVSNKALPAPIEKTISKAKGQPREPQVYVLPPSREEMTKNQVSLLCLVKGFYPSDIAVEWESNGQPENNYLTWPPVLDSDGSFFLYSKLTVDKSRWQQGNVFSCSVMHEALHNHYTQKSLSLSPGK
light 2: QIVLSQSPAILSASPGEKVTMTCRASSSVSYIHWFQQKPGSSPKPWIYATSNLASGVPVRFSGSGSGTSYSLTISRVEAEDAATYYCQQWTSNPPTFGGGTKLEIKRTVAAPSVAIFPPSDERLKSGTASVVCVLNNFYPREAKVQWKVDNALQSGNSQESVTEQDSKDSTYSLSSRLTLSKADYEKHKVYACEVTHQGLSSPVTKSFNRGEC
heavy 2: QVQLQQPGAELVKPGASVKMSCKASGYTFTSYNMHWVKQTPGRGLEWIGAIYPGNGDTSYNQKFKGKATLTADKSSSTAYMQLSSLTSEDSAVYYCARSTYYGGDWYFNVWGAGTTVTVSAASTKGPSVFPLAPSSKSTSGGTAWLGCEVTDYFPEPVTVSWNSGALTSGVHTFPAVLESSGLYSLSSVVTVPSSSLGTQTYICNVNHKPSNTKVDKKVEPKSCDKTHTCPPCPAPELLGGPSVFLFPPKPKDTLMISRTPEVTCVVVDVSHEDPEVKFNWYVDGVEVHNAKTKPREEQYNSTYRVVSVLTVLHQDWLNGKEYKCKVSNKALPAPIEKTISKAKGQPREPQVYVYPPSREEMTKNQVSLTCLVKGFYPSDIAVEWESNGQPENNYKTTPPVLDSDGSFALVSKLTVDKSRWQQGNVFSCSVMHEALHNHYTQKSLSLSPGK
notes: also called CD47xCD20 bispecific; anti-CD47/anti-CD20 IgG1 1+1 heterodimer bispecific antibody
